Common to all, as to settings: both partners purified
Assay [1] has as its target DLB brain-derived α-synuclein fibrils (human (endogenous in brain tissue), UniProt P37840 1-140). Nature of the assay: negative-stain transmission electron microscopy; brain-derived (sarkosyl-insoluble) fibrils mixed with R8-LMNPs (3 μg/mL), 4 °C overnight, 2% uranyl acetate.
Assay [2] concerns the target MSA brain-derived α-synuclein fibrils (human (endogenous in brain tissue), UniProt P37840 1-140). Described as above.
Assay [3] deals with T1, recombinant α-synuclein fibrils (human, UniProt P37840 1-140). Put plainly: SPR; α-syn fibrils on the SPR chip, LMNPs flowed over; LMNPs would not dissociate, no Kd calculated.
In assay [4] the target is T1, recombinant α-synuclein fibrils. Put plainly: SPR; short, sonicated α-syn fibrils immobilised on a CM5 chip, BiaCore T200; peptides 300 nM to 10 μM in PBS; steady state analysis, 1:1 binding model; apparent Kd. (In general: In SPR one partner is held on a chip, and binding of the other changes the refractive index at the surface.)

Binding result and Kd data for four molecules are collected here from article PMC12019173, “Liganded magnetic nanoparticles for magnetic resonance imaging of α-synuclein” (NPJ Parkinson's Disease, 2025).

No end group written: not given here.

B1: R8-liganded magnetic nanoparticles (other)
peptide: RVGGARVWGVRKKGRKKRRQRRRPQ
modifications: also: covalently coupled to amine-functionalized dextran-coated iron oxide nanoparticle
notes: two-lysine linker; cell penetrating peptide; Multiple R8 ligands on each nanoparticle (multivalent, avidity); also called R8-LMNPs; R8-LMNP
As to B1, the binding result in assay [1], in assay [2] and in assay [3] was “binds” throughout.

B2: 24mer (designed binder)
peptide: GAVVWGVTAVKKGRKKRRQRRRPQ
notes: two lysine linker; cell penetrating peptide; 24 residues; also called 24-residue peptide
Regarding B2, in assay [4], the Kd turned out to be 3700 nM.

B3: 24mer-liganded magnetic nanoparticles (other)
peptide: GAVVWGVTAVKKGRKKRRQRRRPQ
modifications: also: covalently coupled to amine-functionalized dextran-coated iron oxide nanoparticle
notes: two lysine linker; cell penetrating peptide; Multivalent; also called 24mer-LMNPs
In the case of B3, the binding result in assay [3] is given as “binds”.

B4: R8 (designed binder)
peptide: RVGGARVWGVRKKGRKKRRQRRRPQ
notes: two-lysine linker; cell penetrating peptide (the methods call it the Tat peptide; detected with an anti-HIV-1 tat antibody); 25 residues; also called R8 peptide; source: synthetic peptide (Genscript or LifeTein)
For the molecule B4, in assay [4], the Kd stood at 470 nM.
